What all share (details): scale: ratio of % tetramer-binding CD8alpha-high cells, bound/unbound fraction
The target of assay [1] is E-selectin expressed on CHO-E cells (UniProt P16581). Nature of the assay: peptide-stimulated PBMC, one hour rotary co-incubation with CHO-E monolayer, flow cytometry with tetramer B7-RPR. A general note: Flow cytometry measures light scatter and fluorescence of single cells or particles in a stream.
For assay [2] the target is unchanged. Nature of the assay: peptide-stimulated PBMC, one hour rotary co-incubation with CHO-E monolayer, flow cytometry with tetramer B7-APA.
Assay [3] shares this target. As to the kind of experiment: un-manipulated PBMC, one hour rotary co-incubation with CHO-E monolayer, flow cytometry with tetramer B7-RPR.

“And” between values parts separate entries of the source, which are not always exact repeats. Equal entries are not always repeated.

For the substance “CLA-associated E-selectin ligand on HSV-2-specific CD8+ T-cells”, the CHO-E-selectin enrichment in assay [1] was 9.5; in assay [2], 8.3; in assay [3] it was 13.2 and 10.1 and 5.6.
